In assay [1] the target is T1, phospholipase A2 (PLA2) (Homo sapiens (Human), UniProt O15496 43-165).
T1 construct: PLA2 as used in Biacore, MCAB binning, peptide scan and the purified-antibody functional assay; also called PLA2 antigen
T1 sequence: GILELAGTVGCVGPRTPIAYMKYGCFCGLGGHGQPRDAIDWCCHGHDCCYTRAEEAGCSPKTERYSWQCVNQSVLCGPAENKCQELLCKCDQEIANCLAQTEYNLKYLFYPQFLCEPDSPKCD
Nature of the assay: Biacore 2000, captured Ab, global 1:1 fit. The method, then:
(§1) In the immobilization, HBS-P was used as the running buffer; in the binding studies, HBS-P, with 12 mg/mL of each BSA and dextran, was used as sample and running buffers.
Data were normalized based on the individual antibody capture levels and fit globally to a 1:1 interaction model.
Background: SPR reads the build-up and loss of mass on a sensor chip optically.

In assay [2] the target is T1, phospholipase A2 (PLA2). Nature of the assay: cell-based or functional assay.
Assay [3] deals with T1, phospholipase A2 (PLA2). Nature of the assay: Biacore 2000, Ab captured from supernatant, 300 nM PLA2. The method, then: as §1
Briefly, antibody supernatants were diluted 1/10 and antibodies were captured individually on the IgG surfaces. After a one-minute wash step, buffer and PLA2 (300 nM) were injected serially (one-minute association, five minute dissociation) over each surface. Capture levels were measured from −20 to 0 seconds and the surfaces were regenerated with a 6-second pulse of 100 mM H₃PO₄.

B1: anti-PLA2 mAb 2.15 (antibody, IgG4, V domains shown)
VH: QVQLVESGGGVVQPGRSLRLSCAASGFTFSSYGMHWVRQAPGKGLEWVAVIWYDGSNKYYADSVKGRFTISRDNSKNTLYLQMNSLRAEDTAVYYCARRDWNYAFDIWGQGTMVTVSS
VL: DIQMTQSPSSLSASVGDRVTITCRASQSISNYLNWYQQKPGKAPKFLIYAASSLQSGAPSRFSGSGSGTDFTLTISSLQPEDFATYYCQQSYSTPITFGQGTRLEIKR
By Kd is commonly meant the constant that tells how readily two partners part at equilibrium. Usually koff stands for the first-order rate constant of dissociation. Higher therefore signals a short-lived complex. Broadly, the kon is the second-order rate constant of association. In the case of B1, in the assay with phospholipase A2 (PLA2) [1], the Kd stood at 100 nM, the koff amounted to 0.000902 s⁻¹ and the kon came to 8880 M⁻¹ s⁻¹. In the assay with phospholipase A2 (PLA2) [2], the “IC50 of inhibition of PLA2 enzyme activity (12-point dose curve)” value (shortened to “IC50 of inhibition … (12-point dose curve)”) was determined as 14.3 nM. This molecule also showed a Response in the assay with phospholipase A2 (PLA2) [3] of 37 RU.

B2: anti-PLA2 mAb 2.23 (antibody, IgG4, V domains shown)
VH: QVQLEESGGGVVQPGRSLRLSCAASGFTFSSYGMHWVRQGPGKGLEWVAVIWYDGSNKKYADSVKGRFTISRDNSKNTLYLQMNSLRAEDTAVYYCARDGPIFGVVMGYWGQGTLVTVSS
VL: DIQMTQSPSSLSASVGDRVTITCRTSQSISNYLNWFQQKPGKAPILLIYAASSLQSGVPSRFSGSGSGTDFTLTISSLQPEDFATYYCHQSYSIPITFGQGTRLEIKR
For B2, in the assay with phospholipase A2 (PLA2) [1], binding was characterised by a dissociation constant (Kd) of 120 nM, the koff stood at 0.000969 s⁻¹ and the kon was determined as 8270 M⁻¹ s⁻¹. Moreover, the “IC50 of inhibition … (12-point dose curve)” value with phospholipase A2 (PLA2) [2] worked out at 14.4 nM. For the same molecule, the Response with phospholipase A2 (PLA2) [3] was 7 RU.

B3: anti-PLA2 mAb 1.18 (antibody, IgG2, V domains shown)
VH: EVQLVQSGAEVKKPGESLKISCKGSGYSFTNYWINWVRQMPGKGLEWMGIIYPGDSDTRYSPSFQGQVTISADKSISTAYLQWSSLKASDTAMYYCARHRLGFDYWGQGTLVTVSS
VL: DIQMTQSPSSLSASVGDRVTITCRASQGIRNDLDWCQQKPGKAPKRLIYAASSLQSGVPSRFSGSGSGTEFTLTISSLQPEDFATYYCLQHNNYPPTFGQGTKVEIKR
In the assay with phospholipase A2 (PLA2) [1], B3 registered a Kd of 50 nM, a koff of 0.00192 s⁻¹ and a kon of 38600 M⁻¹ s⁻¹. In addition, in the assay with phospholipase A2 (PLA2) [2], the “IC50 of inhibition … (12-point dose curve)” value stood at 0.78 nM. Besides, the Response in the assay with phospholipase A2 (PLA2) [3] stood at 6 RU.

B4: anti-PLA2 mAb 1.21 (antibody, IgG2, V domains shown)
VH: EVQLVQSGAEVKKPGESLKISCKGSGYRFTSYWISWVRQMPGKGLEWMGIIYPGDSDTRYSPSFQGQVTISADKSISTAYLQWSSLKASDTAMYYCARHREAFDIWGQGTMVTVSS
VL: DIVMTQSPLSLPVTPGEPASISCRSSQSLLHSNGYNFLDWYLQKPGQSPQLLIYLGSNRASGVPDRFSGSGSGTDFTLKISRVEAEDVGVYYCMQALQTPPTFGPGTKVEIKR
As for B4, in the assay with phospholipase A2 (PLA2) [1], the affinity, expressed as Kd, was 11 nM; the koff is 0.00063 s⁻¹; the kon stood at 57100 M⁻¹ s⁻¹. In the assay with phospholipase A2 (PLA2) [2], the “IC50 of inhibition … (12-point dose curve)” value amounted to 3.64 nM. Moreover, the Response with phospholipase A2 (PLA2) [3] was determined as 61 RU.

B5: anti-PLA2 mAb 1.27 (antibody, IgG2, V domains shown)
VH: EVQLVQSGAEVKKPGESLKISCKGSGYSFTSYWIGWVRQMPGKGLEWMGIIYPGDSDTRYSPSFQGQVTISADKSISTAYLQWSSLKASDTAMYYCARSWTYGMDVWGQGTTVTVSS
VL: EIVLTQSPGTLSLSPGERATLSCRASQSVRSNYLTWYQQKPGQAPRLLIYGASTRATGIPDRFSGSGSGTDFTLTISRLEPEDFAVYYCQQYGSSPLTFGGGTKVEIKR
Turning to B5, in the assay with phospholipase A2 (PLA2) [1], the Kd was determined as 27 nM, the koff is 0.000922 s⁻¹ and the kon was found to be 34500 M⁻¹ s⁻¹. Besides, the “IC50 of inhibition … (12-point dose curve)” value with phospholipase A2 (PLA2) [2] stood at 9.4 nM. This molecule also showed a Response with phospholipase A2 (PLA2) [3] of 78 RU.

B6: anti-PLA2 mAb 1.14 (antibody, IgG2, V domains shown)
VH: EVQLVQSGAEVKKPGESLKISCKGSGYSITSYWIGWVRQMPGKGLEWMGIIYPGDSDTRYSPSFQGQVTISADKSISTAYLQWSSLKASDTAMYYCARHSGSSFDYWGQGTLVTVSS
VL: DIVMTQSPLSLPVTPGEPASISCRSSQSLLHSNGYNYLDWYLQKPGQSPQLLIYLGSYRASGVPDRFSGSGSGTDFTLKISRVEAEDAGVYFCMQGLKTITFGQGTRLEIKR
In the assay with phospholipase A2 (PLA2) [1], B6 registered a Kd of 18 nM, a koff of 0.000791 s⁻¹ and a kon of 43900 M⁻¹ s⁻¹. Also, the “IC50 of inhibition … (12-point dose curve)” value with phospholipase A2 (PLA2) [2] is 3.9 nM. Further, in the assay with phospholipase A2 (PLA2) [3], the Response came out at 74 RU.

B7: anti-PLA2 mAb 1.7 (antibody, IgG2, V domains shown)
VH: EVQLVQSGAEVKKPGESLKISCKGSGYSFISYWIGWVRQMPGKGLEWMGIIYPGDSDTRYSPSFQGQVTISADKSISTAYLQWSSLKASDTAMYYCARSWTYALDVWGQGTAVTVSS
VL: EIVLTQSPGTLSLSPGERATLSCRPSQSVRSNYLTWYQQKPGQAPRLLIYGASTRATGIPDRFSGSGSGTDFTLTVSRLEPEDFAVYYCQQYGSSPLTFGGGTKVEIKR
notes: also called 1.7.1
Take B7: in the assay with phospholipase A2 (PLA2) [1], binding was characterised by a dissociation constant (Kd) of 9.5 nM, the koff came out at 0.000451 s⁻¹ and the kon came out at 47400 M⁻¹ s⁻¹. Besides, the “IC50 of inhibition … (12-point dose curve)” value in the assay with phospholipase A2 (PLA2) [2] is 4.73 nM. The molecule further yielded a Response in the assay with phospholipase A2 (PLA2) [3] of 118 RU.

B8: anti-PLA2 mAb 1.5 (antibody, IgG2, V domains shown)
VH: EVQLVQSGAEVKKPGESLKISCKGSGYSFISYWIGWVRQMPGKGLEWMGIIYPGDSDTRYSPSFQGQVTISADKSISTAYLQWSSLKASDTAMYYCARHWSYGMDVWGQGTTVTVSS
VL: EIVLTQSPGTLSLSPGERATLSCRASQSVRSGYLAWYQQRPGQAPRFLIYGASSRATGIPDRFSGSGSGTDFTLTISRLEPEDFAVYYCQQYGSSPLTFGGGTKVEIKR
notes: also called 1.5.1
In the assay with phospholipase A2 (PLA2) [1], B8 displayed a Kd of 15 nM, a koff of 0.000713 s⁻¹ and a kon of 48700 M⁻¹ s⁻¹. Also, the “IC50 of inhibition … (12-point dose curve)” value in the assay with phospholipase A2 (PLA2) [2] was 2.36 nM. The molecule further yielded a Response with phospholipase A2 (PLA2) [3] of 70 RU.

B9: anti-PLA2 mAb 2.19 (antibody, IgG4, V domains shown)
VH: QVQLVESGGGVVQPGRSLRLSCAASGFTFSSYGMHWVRQAPGKGLEWVAAIWYDGSNKWYADSVKGRFTISRDNSKNTLYLQMNSLRAEDTAVYYCARGGTGTPGAFDIWGQGTMVTVSS
VL: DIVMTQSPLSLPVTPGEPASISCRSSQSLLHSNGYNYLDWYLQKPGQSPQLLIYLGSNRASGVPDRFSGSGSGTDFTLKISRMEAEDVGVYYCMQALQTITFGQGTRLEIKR
notes: also called 2.19.1
Regarding B9, in the assay with phospholipase A2 (PLA2) [1], binding was characterised by a dissociation constant (Kd) of 6.2 nM, the off-rate (koff) came to 0.000115 s⁻¹ and the kon was found to be 18600 M⁻¹ s⁻¹. The Response in the assay with phospholipase A2 (PLA2) [3] was found to be 52 RU.

B10: anti-PLA2 mAb 2.7 (antibody, IgG4, V domains shown)
VH: GVQLVQSGAEVKKPGESLKISCKGSGYSFTNYWIGWVRQMPGKGLEWMGIIYPGDSDTRYSPSFQGQVTISADKSISTAYLQWSSLKASDTAIYYCARGGVGAFDIWGQGTMVTVSS
VL: EIVLTQSPGTLSLSPGERATLSCRASQIIRRSSLAWYQEKPGQAPRLLIYGASSRATGIPDRFSGSGSGTDFTLTISRLEPEDFAVYYCQQYGSSPPFTFGPGTKVDIKR
notes: also called 2.7.1
In the assay with phospholipase A2 (PLA2) [1], B10 yielded a Kd of 10 nM, a koff of 0.00104 s⁻¹ and a kon of 99600 M⁻¹ s⁻¹. The Response with phospholipase A2 (PLA2) [3] amounted to 126 RU.

The values above are taken from patent US20050058649A1 (published 2005).
